Results from article PMC3247018 (Journal of molecular biology, 2011).

B1: bacteriophage lambda gpE major capsid protein (natural protein, UniProt P03713 1-341, looked up)
chain: MSMYTTAQLLAANEQKFKFDPLFLRLFFRESYPFTTEKVYLSQIPGLVNMALYVSPIVSGEVIRSRGGSTSEFTPGYVKPKHEVNPQMTLRRLPDEDPQNLADPAYRRRRIIMQNMRDEELAIAQVEEMQAVSAVLKGKYTMTGEAFDPVEVDMGRSEENNITQSGGTEWSKRDKSTYDPTDDIEAYALNASGVVNIIVFDPKGWALFRSFKAVKEKLDTRRGSNSELETAVKDLGKAVSYKGMYGDVAIVVYSGQYVENGVKKNFLPDNTMVLGNTQARGLRTYGCIQDADAQREGINASARYPKNWVTTGDPAREFTMIQSAPLMLLADPDEFVSVQLA
B2: bacteriophage lambda gpNu3 scaffolding protein (natural protein, UniProt P03711-2 1-131, looked up)
chain: MTKETQSTTVSATASQADVTDVVPATEGENASAAQPDVNAQITAAVAAENSRIMGILNCEEAHGREEQARVLAETPGMTVKTARRILAAAPQSAQARSDTALDRLMQGAPAPLAAGNPASDAVNDLLNTPV

Assays:
[1] = molecular target: bacteriophage lambda gpNu3 scaffolding protein (bacteriophage lambda) (UniProt P03711); assay: AUC
SEC = molecular target: the molecule itself; assay: SEC
[2] = molecular target: B1; assay: SEC

Molecule: bacteriophage lambda gpNu3 scaffolding protein (from UniProt P03711-2 1-131) (natural protein)
- stoichiometry N [1]: 2

Molecule: B1
- binding result (SEC): binds

Molecule: B2
- binding result [2]: binds
